Test results: the DeepSol protein solubility set

Test: soluble on expression in E. coli; label from the status in PepcDB or PDB records

| Sequence | soluble on expression in E. coli |
| --- | --- |
| MRRKHDWLRETYRKSLEKIPERPVAHRTLSNIAPDPLYTPEDIGVLDPEYEEKRGFPGEFPYTRGVYGSMYRSKLWTMRMFAGFGTAEQTNERFKKLLKAGQTGLSVAFDLPTLMGYDSDHPLSKGEVGKCGVAVSSLADMEILFEGINLEEVTTSMTINSPANAIWAMYLAVAKKRGYDWKKLGGTIQNDILKEYIAQKEFIFPPEPSVKLVIDTFEWGPKNVPKWNFISVSGYHIREAGSTAVQELAWTLADGFEYVEAALKRGLDIDEFAPRISFFFDVHNDFFEEIAKFRAARRIWAKEMRYRYKAKNPQSWMLRTHAQTAGVSLTAQQPLNNIARVAIQALAAVLGGTNSLHTDAYDEALALPTEESATIALRTQQIIAYETGVTHTIDPLAGSYYVEWLTDEMERQAMEIIEEIRRMGGVVRAIEEGYFLRELAEASYRYQQEVERKERIIVGVNAFTDEIPLKVPIQLVDPEVERVQAERLARVRRERDPKRVEEALQGLRRAAVEGQNTMPHFVECALAYCTLGEMMDVLREVYGTYQEPAYV | soluble |
| TGMSREEVESLIQEVLEVYPEKARKDRNKHLAVNDPAVTQSKKCIISNKKSQPGLMTIRGCAYAGSKGIVWGPIKDMIHISHGPVGCGQYSRAGRRNYYIGTTGVNAFVTMNFTSDFQEKDIVFGGDKKLAKLIDEVETLFPLNKGISVQSECPIGLIGDDIESVSKVKGAELSKTIVPVRCEGFRGVSQSLGHHIANDAVRDWVLGKRDEDTTFASTPYDVAIIGDYNIGGDAWSSRILLEEMGLRCVAQWSGDGSISEIELTPKVKLNLVHCYRSMNYISRHMEEKYGIPWMEYNFFGPTKTIESLRAIAAKFDESIQKKCEEVIAKYKPEWEAVVAKYRPRLEGKRVMLYIGGLRPRHVIGAYEDLGMEVVGTGYEFAHNDDYDRTMKEMGDSTLLYDDVTGYEFEEFVKRIKPDLIGSGIKEKFIFQKMGIPFREMHSWDYSGPYHGFDGFAIFARDMDMTLNNPCWKKLQAPWEASEGAEKVAASA | soluble |
| MISRTQRLLSLSTAMLLATTAAAVAEPSEELIAAAKKEGTLTTIALPHNWCGYGDVIAGFKAKYGIEVNELNPDAGSGDEIEAIKANKGNTGPQAPDVIDVGLSFGPSAKAEGLIQPYKVSTWDTIPDTAKDPEGYWYGDYYGVLSFVVNTDIVKDVPKDWADLKKSDYANSVALAGDPRASNQAVQAVYAAGLAAGETDAAKAGEAGLAFFAEVNKAGNFVPVIGKSASLAQGSTPIIIAWDYNGLSWRDSLNGNPPVEVVVPASGVVAGVYVQAISAFAPHPNAAKLWMEYLYSDEGQLGWLKGYCHPIRFNDLVKNGKVPKEMLDKLPPAESYEKAVFPTLDEQAKGKEAITTKWDSVVGASVQ | not soluble |
| MGSDKIHHHHHHMWTPCGRADGNANSPRQSQFALDDLIDIPTDFSLYSTALKKFSQGMERPMYRNFRIVPNIIFGRGSFNQLDDVLKDRRVTADSWMVFVVDDVFTGKPLEGRFPLRGRDLLLWVNVDDEPKTRYIDELVARIRAYSPTAPAGIAGIGGGSAMDIAKAVSLMLNNPGSSADYQGWDLIKNPAVYHVAVPTLAGTGAEISRTTILTGPEKKLGINSDYTLYDQILLDPELLAGVPKNQWFYTGMDCYIHDVESLNGTFINEFSKAYGEKSRDLCREVFLDDSPAKDDKLMMASYFGGMSIAYSQVGACHALSYGLSYVLGIHHGVGCCIAFDQLEEIYPEGVQEFRQMMEKHDIPLPRNLTKDLDSASMEKMVTTALNLVPLWENCLGPDWANIMTRERAMELYKKM | not soluble |
| GMSSKAEKDIKWGIAPIGWRNDDIPSIGKDNNLQQLLSDIVVAGFQGTEVGGFFPGPEKLNYELKLRNLEIAGQWFSSYIIRDGIEKASEAFEKHCQYLKAINAPVAVVSEQTYTIQRSDTANIFKDKPYFTDKEWDEVCKGLNHYGEIAAKYGLKVAYHHHMGTGIQTKEETDRLMANTDPKLVGLLYDTGHIAVSDGDYMALLNAHIDRVVHVHFKDVRRSKEEECRAKGLTFQGSFLNGMFTVPGDGDLDFKPVYDKLIANNYKGWIVVEAEQDPSKANPLEMAQIAHRYIKQHLIEN | soluble |
| MNLEQLINVLGLLVWIAARAVSRVGPHGSGLVYRELHDFYGYLQLDLLGPVVAGNRSVRTWREQADRARGTFAWRSGLNTSRILPVGSMYRGSDALPAGLYRPEEEVFLLLNRCHGPLSTPKNACLAEVGVANATFLSRFNVGDFHGASWENGTAPDGEPGVCLEHHHHHH | not soluble |
| MEKYQVKFMPDQQVIEVEKGTSLLKAASQAGIFIKSSCGGKGTCGACKVTVISGEAKSERTGNLSPEQLSRGVRLSCHTFVEGDLTVEVPPESRLQAHQVLLENANAALLTETSKDLLTYYGYHPLARKVNIRCSEPTLTDNAGDWARLSLELKRVLQSDKPLTIPLSVLQTLPETLRQAHWDLSVILTDLELGYTVLHVEPANDRPCYGLAIDVGTTTVVVYLVDLDSGEIVDKQGSYNKQAQFGDDVISRIVYAVDSKENMAEIQKAVVDTVNALIDGILERQSLTSQDIASAVIAGNTTMSQLFLGINPRYIRLEPYIPTVNSTPAVSAREIGLRLLPEALIHTYPSVASYVGGDIVSGALATDMANSDEIILFIDIGTNGEIVLGNKDWLVSCACSAGPCFEGGGILFGMRAMPGAIERVDIDPESLDVKLKVVGKIAPVGICGSGLVDCLAKLRKAGIIDRAGNFQLEHPSQSARIRATEDDKEFVLAWAHQAGGDKDIVISENDVKNLIRAKGAIYAGIRSLLQTVALEIDMIERIVIGGGFGNYLNVHDSVEIGLLPDLPQEKFEFIGNSSVKGARLALLSQKAWNEAADLARKMTYIELSIGTTFMDEFVSALFLPHTDLSLFPSVEGTFLEHHHHHH | soluble |
| MGSDKIHHHHHHMSNANPSRLGMVNGTGADDALFLKVFGGEVLTTFAENNVFLPLTMSRTITSGKSAQFPVLGKNTAYYHVPGAELNGNNILNAERVITVDGLLVSPVFIAKIDEAKTHYDVRSQYTSECGASLSNQADRTISQVLINAARSTATITGGFGGTKLVDAAFGTDGDKLAAGIFGIAQTFDEKDVPETDRYAAVRPAQYYLMVAGTKVLNRDWGGSGSYMDGKVLKVAGVSIVKSNHIPKSVITGSAQAAYDGDFTKTVAVGFHKSAVGTVKLLDLQTEGEYQIQRQGTLIVAKYAMGHGVLRPEAAVELASA | not soluble |
| GPGSPKLVRINTNEKGITNVQLARAPVNSMSLELFQELNQWMLWLGSNEETKAVIISSAIPTVFSAGLDLVEVHNPKPDRVAVFWQSFQEMWLILNSFPKPIIAAITGNSPAAGCIIAMGCDYRVMARGPKGNTNNNRLYRIGLNETKLGLVAPPWVMPAYAYLLGSRQAERMLQLGETPVADDARNLGLIDEVAADEERAIEVAYQQAERFLSVPQQSRWMARDMMRREYLQMLASDEERNYDTEFFTQFVQSPEVQKNLESYLERLKSCSRK | soluble |
| MGSDKIHHHHHHMSTPSPALFFNTVNAYQRSAAIKAAVELNVFTAISQGIESSQSLAQKCQTSERGMRMLCDYLVIIGFMTKQAEGYRLTSDSAMFLDRQSKFYVGDAIEFLLSPMITNGFNDLTAAVLKGGTAISSEGTLSPEHPVWVQFAKAMSPMMANPAQLIAQLVNENKIEPLKVLDISASHGLFGIAVAQHNPNAEIFGVDWASVLEVAKENARIQGVASRYHTIAGSAFEVDYGNDYDLVLLPNFLHHFDVATCEQLLRKIKTALAVEGKVIVFDFIPNSDRITPPDAAAFSLVMLATTPNGDAYTFAEYESMFSNAGFSHSQLHSLPTTQQQVIVAYK | not soluble |
| MALRRVKNPEMWNDDLYNLMFRFTKPNGTFATFTAASAVRKGLESAGFNVTKRKGFGKKRECLSGLKIQSKSTALSTPWYLAQPAKMEKQDVAIIGGGIASLCAAISLIKRGAKVTIYCEDDALALNASGNKQGAFYPQLSDDNALTVDFYLHAFSYGRQLLDWAIEQNIVFEHEFCGVALCAYNEKSAVKLTKISQLGLPNEIFQMLSAEQLSEKVGLPLNCEGGWIEQGAWLAPRQFVQNAFSFLEKQGVVIKTAQKITALSQLEKGWELKNMQGQKYCHEVVILANGHKITDFVQTEKLPLYPIRGQVSQIPTSENLLKLKSVLCYDGYLTPANQLKTSHCIGASMFVIMLIAILANKNNKKINKNSSKISPNLGRKMWIHQIISLVLEHHHHHH | not soluble |
| MHHHHHHSSGVDLGTENLYFQSMWSVRPSDMAKKTFNPIRAIVDNMKVKPNPNKTMISLSIGDPTVFGNLPTDPEVTQAMKDALDSGKYNGYAPSIGFLSSREEIASYYHCPEAPLEAKDVILTSGCSQAIDLCLAVLANPGQNILVPRPGFSLYKTLAESMGIEVKLYNLLPEKSWEIDLKQLEYLIDEKTACLIVNNPSNPCGSVFSKRHLQKILAVAARQCVPILADEIYGDMVFSDCKYEPLATLSTDVPILSCGGLAKRWLVPGWRLGWILIHDRRDIFGNEIRDGLVKLSQRILGPCTIVQGALKSILCRTPGEFYHNTLSFLKSNADLCYGALAAIPGLRPVRPSGAMYLMVGIEMEHFPEFENDVEFTERLVAEQSVHCLPATCFEYPNFIRVVITVPEVMMLEACSRIQEFCEQHYHC | soluble |
| MSSAGEANCAMIGGSLSAARQLDGSVIGMCALPNGKRCSEQSLAAGSCGSY | not soluble |
| MSTKLYYIYDPMCSWCWGYRPVWDLLQQHLPKSIDVEYVAGGLAPDSDSAMPIDQQQMIQNHWRTIEQKLGTKFNYDFWRENTARRSTYNACRAAIAAHKQSCQKAMIDAIQQAYYLRALNPSDVDVLVSVAKELSEQTSPTLDVAQFIVDINSSETNKELAKQVTLARELTQQGFPSLVLDVDGVIQQIPLDYSDYKTTLAYIIKKTS | not soluble |
| MKITHCKLKKKVQKELLRFFVLEVTARSAADILGIHPNSAVLFYRKIRTVINHHLALAADEVFEGPVEPDESDFGGRRKGRRGRGAAGKVVVFGILKRNGRGYTVVVDNAKSETLLPVIKKKIMPDSIVYTDSLSSCDKLDVSGFIHYRINHSKEFADRQNHINGIENFWNQAKRVLRKYNGIDRKSFPLFLKECEFRFNFGTPSQQLKILRDWCGILEHHHHHH | soluble |
| QCGACGESYAADEFWICCDLCEMWFHGKCVKITPARAEHIKQYKCPSCSNK | soluble |
| MSLAKRIKIDNASSKFRRQSQKREQKVIRCSVLIVCEGTKTEPNYFEAFAEKQQGVIVYDIEVKGLGRGTKDVVEKAIDLKNKNNYDRVWAVFDRDEFPAKDFNEAIAMGQKNSIEVAWSNEAFELWYLYHFQNVITGVSRKDYEEKISTAVNASPKYKSKKKYRYAKKDPNNYKIMTTYGSMESALRYAEAKHLEYADSRYANQNPCTTIYQLVRQLLGRDEKLNAELIARIGENEGHHHHHH | soluble |
| MSLQKELARNQHLAERLLETEESVRRDVARELHDDIGQTITAIRTQAGIVQRLAADNASVKQSGQLIEQLSLGVYDAVRRLLGRLRPRQLDDLTLEQAIRSLMREMELEGRGIVSHLEWRIEESALSENQRVTLFRVCQEGLNNIVKHADASAVTLQGWLQDERLMLVIEDDGSGLPPGSGQQGFGLTGMRERVTALGGTLTISCLHGTRVSVSLPQRYVEGHHHHHH | soluble |
